Results as given in patent publication US20260103529A1, “Amino Acid Sequences Directed Against the Melanocortin 4 Receptor and Polypeptides Comprising the Same for the Treatment of MC4R-Related Diseases and Disorders” (Confo Therapeutics N.V., priority 2022, published 2026).

Experiments:
human MC1R = biological target: T1, human MC1R (Homo sapiens, UniProt Q01726); test: Flow cytometry binding to Flag-tagged receptor in HEK293T cells, MC1R; conditions: 1 μM
T1 construct: Flag; expressed in transfected cells; host or cells: HEK293T
Description: (§1) To confirm MC4R activation, dose-dependent nanobody-induced cAMP signaling was assessed (Lance Ultra HTRF). […] Binding of pN162 to the human melanocortin receptor subtypes MC1R, MC2R, MC3R, MC4R or MC5R transiently expressed as Flag-tagged receptors in HEK293T cells was assessed by flow cytometry.

DIO mice = test: Diet-induced obese (DIO) mouse study, acute setting, ICV administration; assay type: in vivo
Description: The mouse studies described in Examples 2 and 3 were performed at a fully AAALAC accredited unit (Gubra, Denmark), and all animal experiments were conducted in accordance with the CRO's bioethical guidelines, which are fully compliant to internationally accepted principles for the care and use of laboratory animals. All experiments were licensed by the Danish Animal Experimentation Council. This animal model is based on male C57BI/6J mice that are fed for a minimum of 18 weeks a 60% high fat diet that result in rapid weight gain. The mice were obtained from commercial vendors in Europe and United States transferred to Gubra's animal unit. The animal room environment is controlled (targeted ranges: temperature 21±2° C.; relative humidity 50±10%). The animals are maintained on a reversed 12 h light/dark cycle and have access to plenty of bedding material, shelters and chewing sticks. Animals were dosed just before lights went off.
Male DIO mice (5 weeks of age at time of arrival and HF diet induction, 46 weeks of age at study start, n=50) had ad libitum access to 60% high fat diet (D12492, Research diets) and water. The DIO mice were acclimatized to an automated real-time food intake monitoring system (MoNI system) individually housed in the system for 14 days prior to study start. The animals went through ICV cannulation on study day −6/−5 and on study day−1, animals were randomized into 5 treatment groups (n=8 per group) based on body weight (PM, day−2).

human wild type MC5R = biological target: T2, human wild type MC5R (Homo sapiens, UniProt P33032); test: cAMP GloSensor assay, MC5R; assay type: cell-based
T2 construct: expressed in transfected cells; host or cells: HEK293 / HEK 293T, pcDNA3.1(+)

[1] = system: highly pigmented normal human epidermal melanocytes (NHEM-HP); test: In vitro pigmentation assay, melanin synthesis, 2D NHEM highly pigmented; assay type: cell-based; conditions: 10 μM, 10 days
Description: Highly and moderately pigmented melanocytes were seeded in 24-well plates and cultured in culture medium for 24 hours. The medium was then replaced by culture medium containing or not (control) the test compounds or the reference compounds (L-tyrosine at 1 mM, IBMX at 100 and 200 μM and NDP-MSH at 10 μM). The cells were then incubated for 10 days with treatment renewal at day 3 and day 7. All experimental conditions were performed in n=3. At the end of the incubation time, the culture supernatants were removed, and melanin was extracted by cell lysis using a 0.5 N NaOH solution. The optical density (OD) of each experimental point was measured at 405 nm and melanin quantity was determined according to melanin standard curve (standard curve ranging from 0.39 to 100 μg/ml). The results were expressed in μg/ml of melanin. […] NHEM-HP response to L-tyrosine and NDP-MSH was stronger than in NHEM-MP while IBMX induced a stronger response in the NHEM-MP.

human MC5R = biological target: T3, human MC5R (Homo sapiens, UniProt P33032); test: Flow cytometry binding to Flag-tagged receptor in HEK293T cells, MC5R; conditions: 1 μM
T3 construct: Flag; expressed in transfected cells; host or cells: HEK293T
Description: as §1

WT human MC4R [2] = biological target: T4, WT human MC4R (Homo sapiens, UniProt P32245); test: Gs ConfoSensor recruitment assay; assay type: cell-based; conditions: for EC50: WT human MC4R-expressing HEK293T cells
T4 construct: Flag (N); expressed in transfected cells; host or cells: HEK293T

human wild type MC4R = human wild type MC4R (Homo sapiens, UniProt P32245); test: cAMP signaling assay (Lance Ultra HTRF); assay type: cell-based; design: double Twin Strep tag; expressed in transfected cells; host or cells: HEK293; conditions: purified nanobodies, human MC4R-overexpressing HEK293 cells, read-out: potencies, MC4R-mediated dose-dependent cAMP accumulation
Description: as §1

WT human MC4R [3] = biological target: T4, WT human MC4R; test: β-arrestin recruitment assay; assay type: cell-based; conditions: for EC50: WT human MC4R-expressing HEK293T cells
[4] = pN162 0.5 and 5 nmol ICV on day 0 and day 2, study day 4
[5] = Flag-tagged WT human MC4R HEK293T cells
[6] = absence vs presence of 1 mM Ca2+

T4 sequence (P32245 whole entry): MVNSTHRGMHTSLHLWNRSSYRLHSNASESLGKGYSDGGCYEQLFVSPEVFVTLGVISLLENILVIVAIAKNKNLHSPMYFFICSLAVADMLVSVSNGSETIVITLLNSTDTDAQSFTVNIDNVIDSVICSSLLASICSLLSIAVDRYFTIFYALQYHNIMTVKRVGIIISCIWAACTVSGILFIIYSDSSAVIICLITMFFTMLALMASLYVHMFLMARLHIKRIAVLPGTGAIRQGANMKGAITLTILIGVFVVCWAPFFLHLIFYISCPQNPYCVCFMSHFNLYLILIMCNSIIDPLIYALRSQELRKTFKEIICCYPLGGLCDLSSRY
T2 sequence (P33032 whole entry): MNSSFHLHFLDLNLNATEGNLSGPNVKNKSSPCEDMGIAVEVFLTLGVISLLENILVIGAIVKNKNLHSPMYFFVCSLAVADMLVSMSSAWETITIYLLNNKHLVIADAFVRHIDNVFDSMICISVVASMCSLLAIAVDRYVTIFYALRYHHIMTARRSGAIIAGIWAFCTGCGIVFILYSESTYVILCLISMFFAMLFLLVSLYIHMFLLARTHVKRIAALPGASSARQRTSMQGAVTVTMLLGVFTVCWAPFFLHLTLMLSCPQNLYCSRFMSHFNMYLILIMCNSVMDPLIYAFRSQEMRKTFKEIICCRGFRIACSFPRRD
human wild type MC4R, sequence (P32245 whole entry): as the sequence (P32245 whole entry) above
T3 sequence (P33032 whole entry): as the sequence (P33032 whole entry) above
T1 sequence (Q01726 whole entry): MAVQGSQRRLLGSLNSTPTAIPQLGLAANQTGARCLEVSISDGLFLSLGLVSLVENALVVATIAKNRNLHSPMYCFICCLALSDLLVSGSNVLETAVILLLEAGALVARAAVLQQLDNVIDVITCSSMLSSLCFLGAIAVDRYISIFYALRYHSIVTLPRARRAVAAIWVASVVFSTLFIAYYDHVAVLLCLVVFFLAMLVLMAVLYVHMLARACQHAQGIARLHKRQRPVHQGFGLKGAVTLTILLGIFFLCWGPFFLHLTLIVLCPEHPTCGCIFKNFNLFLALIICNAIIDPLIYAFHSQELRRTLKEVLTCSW

B1: pN162: agonistic anti-MC4R VHH, SEQ ID NO: 184; parental clone for potency maturation (protein)
VHH: QVQLVESGGGLVQPGGSLRLSCAASGSAFSLNVMGWYRQTPGNQRALVAEITKDGSTNYADSAKGRFTISRDNAKNTVHLQMDSLKPEDTAVYYCKARTGRIVRPLDYWGQGTQVTVSS
modifications: pN0162
In the case of B1, the “binding to MC1R by flow cytometry” value (human MC1R) is reported as “No binding could be detected”, the “cumulative food intake after first dose” value (DIO mice; pN162 0.5 and 5 nmol ICV) is reported as “reduced by pN162 in a dose-dependent manner” and the “cumulative food intake compared to vehicle” value (DIO mice; [4]) is reported as “reduced”. The “relative body weight compared to vehicle” value (DIO mice; [4]) was “reduced”, the “detectable cAMP signaling, MC5R” value (human wild type MC5R; GloSensor head-to-head receptor subtype comparison) was “only induced detectable signaling on MC4R” and the “cAMP potency (EC50) MC5R” value (human wild type MC5R; GloSensor, average EC50, human MC5R) was “No effect”. For the same molecule, the melanin synthesis [1] was 89 % of the control, the “binding to MC5R by flow cytometry” value (human MC5R) was “No binding could be detected” and the Gs recruitment (WT human MC4R [2]; [5]) was “dose-dependently recruits”. For the same molecule, the EC50 (WT human MC4R [2]; No Ca^2+, read-out: Gs ConfoSensor No Ca^2+ (EC50)) was 8.5 ± 2.1 nM, the “dependence of Gs recruitment on Ca2+ ions” value (WT human MC4R [2]; [6]) was “independent of Ca^2+ ions” and the EC50 (WT human MC4R [2]; read-out: Gs ConfoSensor 1 mM Ca^2+ (EC50), 1 mM Ca^2+) was 12 ± 5 nM. The EC50 (human wild type MC4R) was 0.7 nM, the β-arrestin2 recruitment (WT human MC4R [3]; [5]) was “dose-dependently recruits” and the EC50 (WT human MC4R [3]; No Ca^2+, read-out: β-arrestin No Ca^2+ (EC50)) was 16 ± 2.1 nM. For the same molecule, the “dependence of β-arrestin recruitment on Ca2+ ions” value (WT human MC4R [3]; [6]) was “independent of Ca^2+ ions” and the EC50 (WT human MC4R [3]; read-out: β-arrestin 1 mM Ca^2+ (EC50), 1 mM Ca^2+) was 23 ± 7.1 nM.
